Test results from publication PMC12607630, “ZapC crosslinks FtsZ filaments through a dual-binding mechanism modulated by the intrinsically disordered linker of FtsZ in Escherichia coli” (mBio, 2025).
Substitutions are numbered along the chain they refer to. Where “and” joins values, the source holds several entries; their conditions need not be identical. Identical values can stand only once.

Columns and labels:
Assay in all cases: BLI; 6×His-ZapC or its mutants (0.5 µM) loaded on Ni-NTA biosensors, untagged FtsZ or its variants in solution; Octet-Red96, 30°C, 1× Pol buffer (50 mM HEPES-NaOH pH 6.8, 50 mM KCl, 10 mM MgCl2); apparent Kd from the signal at the end of association against concentration, one-site fit; three repeats with mean (X) and SD
Conditions in all cases: both partners purified
[1] = biological target: T1, FtsZ (untagged, wild type) (Escherichia coli, UniProt P0A9A6 1-383)
T1 construct: also called wild-type FtsZ; source: E. coli BL21(DE3), plasmid pLY17, purified (Ni-NTA); 6×His-SUMO tag removed with Ulp1; not shown: 6×His-SUMO, N-terminal, cleaved
T1 sequence (looked up): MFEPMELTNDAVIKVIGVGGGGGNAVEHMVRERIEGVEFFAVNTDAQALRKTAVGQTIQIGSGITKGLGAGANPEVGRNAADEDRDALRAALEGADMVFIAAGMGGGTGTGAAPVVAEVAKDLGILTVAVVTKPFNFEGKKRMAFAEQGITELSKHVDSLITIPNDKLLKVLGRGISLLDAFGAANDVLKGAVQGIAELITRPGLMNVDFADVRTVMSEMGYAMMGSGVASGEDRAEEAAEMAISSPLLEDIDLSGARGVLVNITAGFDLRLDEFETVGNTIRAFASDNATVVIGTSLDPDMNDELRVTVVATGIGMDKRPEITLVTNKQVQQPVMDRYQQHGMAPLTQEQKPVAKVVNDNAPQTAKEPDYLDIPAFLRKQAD

FtsZ I323L (untagged) = biological target: T2, FtsZ I323L (untagged) (Escherichia coli, UniProt P0A9A6 1-383, I323L)
T2 construct: FtsZ of Escherichia coli with I323L (CTL); Derivative of pLY17 by site-directed mutagenesis; source: E. coli BL21(DE3), plasmid pLY20, purified (Ni-NTA); 6×His-SUMO tag removed with Ulp1; not shown: 6×His-SUMO, N-terminal, cleaved
T2 sequence (looked up): T1 sequence (looked up) with I323L

FtsZ A376T (untagged) = biological target: T3, FtsZ A376T (untagged) (Escherichia coli, UniProt P0A9A6 1-383, A376T)
T3 construct: FtsZ of Escherichia coli with A376T (CTP); Derivative of pLY17 by site-directed mutagenesis; source: E. coli BL21(DE3), plasmid pLY22, purified (Ni-NTA); 6×His-SUMO tag removed with Ulp1; not shown: 6×His-SUMO, N-terminal, cleaved
T3 sequence (looked up): T1 sequence (looked up) with A376T

[2] = biological target: T1, FtsZ (untagged, wild type); remark: listed apart in the source

B1: 6×His-ZapC (natural protein)
chain: not shown
notes: ZapC, FtsZ-associated protein of Escherichia coli; Construction of pSD323 is not described; also called His-tagged ZapC; source: E. coli, plasmid pSD323 (pQE80, Plac::6×His-ZapC), purified (Ni-NTA); not shown: His6, N-terminal, kept
[1]
  Kd: 377 nM and 395 nM and 488 nM and 420 nM
FtsZ I323L (untagged)
  Kd: 647 nM and 635 nM and 620 nM and 579 nM
FtsZ A376T (untagged)
  Kd: 859 nM and 778 nM and 821 nM and 819 nM
[2]
  Kd: 377 nM and 395 nM and 364 nM and 379 nM
